The target in one assay is T1, Biotinylated Abeta40 (UniProt P05067 672-711, biotinylated (site not stated)).
T1 construct: domain: Abeta40 (40 amino acid peptide); Captured on neutravidin-coated ELISA plates; also called beta-amyloid40
Kind of assay: ELISA, biotinylated Abeta40 on neutravidin plates, ESBA212 0 to 500 nM. How it is done: (§1) The binding properties of ESBA212 were tested in an ELISA where Abeta40 and Abeta42, respectively, were used as antigens. 96-well plates were coated with 5 μg/ml neutravidin in dilution buffer (PBS/0.01% BSA/0.2% Tween-20) and incubated overnight at 4° C. The plates were then washed 3 times with TBS/0.005% Tween-20. Biotinylated Abeta40 or Abeta42 (1 μg/ml in dilution buffer) were added to each well and the plate incubated for 15 minutes at room temperature. Plates were washed as above and non-specific binding sites were blocked by addition of dilution buffer. The plates were incubated for another 1.5 hours at room temperature while shaking. After washing the prepared ESBA212 dilutions from 0 to 500 nM were added in triplicates to the wells and incubated for 1 hour at room temperature (RT) while shaking. Plates were washed and ESBA212 was detected by a purified rabbit polyclonal anti-ESBA212 antibody (1:10000 in dilution buffer) for 1 hour at RT. After washing a horseradish peroxidase-labelled anti-rabbit IgG (1:4000 in dilution buffer) was used to detect the previously bound rabbit antibodies and […]. The reaction was stopped by addition of 1 M HCl and the absorption read at 450 nm.
(§2) From the measured ESBA212 curve an EC50 could be calculated.

For another assay, the target named is T2, Biotinylated Abeta42 (UniProt P05067 672-713, biotinylated (site not stated)).
T2 construct: domain: Abeta42 (42 amino acid peptide); Captured on neutravidin-coated ELISA plates; also called beta-amyloid42
The assay is described as follows: ELISA, biotinylated Abeta42 on neutravidin plates, ESBA212 0 to 500 nM. The procedure: as §1, §2

Consider one molecule from US20110020220A1 (DELENEX THERAPEUTICS, published 2011).

T1 sequence (P05067 672-711 limits assumed): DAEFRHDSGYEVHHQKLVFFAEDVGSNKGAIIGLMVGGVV
T2 sequence (P05067 672-713 limits assumed): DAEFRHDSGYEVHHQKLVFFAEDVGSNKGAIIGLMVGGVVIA

B1: ESBA212 (scFv)
scFv: ADIVLTQSPSSLSASVGDRVTLTCRASSSVNYMHWYQQRPGKPPKALIYATSNLASGVPSRFSGSGSGTEFTLTISSLQPEDVAVYYCQQWRTNPPTFGQGTKLEVKRGGGGSGGGGSGGGGSGGGGSQVQLVQSGPEVKKPGASVKVSCTASGYTFTEYTMHWVRQAPGQGLEWMGGVNPYNDNTSYIRKLQGRVTLTVDRSSSTAYMELTSLTSDDTAVYYCARYGGLRPYYFPMDFWGQGTLVTVSS
notes: Humanized scFv with the CDRs of mouse antibody 22C4 on framework 2.3; also called scFv ESBA212; single chain antibody ESBA212
With B1, the EC50 with Biotinylated Abeta40 and with Biotinylated Abeta42 was 1 to 15 nM each time.
